Biological target: West Nile virus NS5 protein, wild-type, with a C-terminal Flag tag (UniProt P06935)
Experiment: co-immunoprecipitation (NS5-Flag IP, western blot for NS3-myc)
Conditions: parent: 100

Substance: West Nile virus NS3 protein, wild-type, with a C-terminal myc tag (from UniProt P06935) R186A
- percent of parent (IP with RNase): 69%
- percent of parent (IP without RNase): 107%
